Experimental findings from US12012446B2, “Epstein-Barr virus antibodies and uses thereof” (priority 2017, dated 2024) are described below.

Test [1] relates to EBV-eGFP infection of Raji cells. In words: EBV neutralization assay in Raji cells. Format: cell-based, Epstein-Barr virus. The note with it: for neutralization of EBV in Raji cells (in words): spin-column purified mAbs, 12.5, 25, 50 and 100 μg/ml. Here is the method: EBV neutralization assay was performed in Raji cells as previously described (47). Briefly, purified individual anti-gp350 mAbs were incubated with purified AGS-EBV-eGFP (titer calculated to infect at least 8% of HEK293 cells seeded in 100 μl of serum-free DMEM) for 2 hours at 37° C. To represent EBV infection of B cells, the pre-incubated anti-gp350 mAbs/AGS-EBV-eGFP were used to infect 5×10^5 Raji cells seeded in a 96-well plate for 2 hours at 37° C. Neutralizing 72A1 and non-neutralizing 2L10 anti-gp350 mAbs served as positive and negative controls, respectively. Infected cells were washed three times with PBS to remove any unbound viruses and antibodies. Washed, infected cells were incubated in 96-well plates at 37° C. for 48 hours post-infection and the number of eGFP+ (infected) cells was determined using flow cytometry. All dilutions were performed in quintuplicate and the assays were repeated three times. Antibody EBV neutralization activity was calculated as: % neutralization=(EBValone−EBVmAb)/(EBValone)×100.
However, this antibody was recently reported to be a mixture of both functional and non-functional antibodies (50). […] The percentage of eGFP+ cells (percent infection) was determined using flow cytometry as described (47). The nAbs 72A1 and E1D1 were used as positive controls, whereas the anti-gp350 non-neutralizing mAb 2L10 and KSHV gH/gL mAb 54A1 were used as negative controls. Because HB4, HB13, HB15, HB16, HB19, HB21, and HB23 were confirmed to be polyclonal based on isotyping and/or sequence data, they were eliminated from further consideration in the neutralization assay. HB18 was not used in neutralization experiments because it was identical to HB8.
The purified eGFP-tagged-EBV was titered in Raji cells to determine percent EBV infection using a range of volumes (50-250 μl) (FIG. 5A). Then initial neutralization of EBV was conducted in Raji cells using purified mAbs at various concentrations (12.5, 25, 50, and 100 μg/ml).
EBV-eGFP+ cells were enumerated using flow cytometry.

The target in test [2] is T1, purified EBV gp350/220 (recombinant EBV gp350 ectodomain) (Epstein-Barr virus, UniProt P03200).
T1 construct: purified EBV gp350 ectodomain protein (AA 4-863); purchased Immune Technology Corporation
T1 sequence (P03200 4-863): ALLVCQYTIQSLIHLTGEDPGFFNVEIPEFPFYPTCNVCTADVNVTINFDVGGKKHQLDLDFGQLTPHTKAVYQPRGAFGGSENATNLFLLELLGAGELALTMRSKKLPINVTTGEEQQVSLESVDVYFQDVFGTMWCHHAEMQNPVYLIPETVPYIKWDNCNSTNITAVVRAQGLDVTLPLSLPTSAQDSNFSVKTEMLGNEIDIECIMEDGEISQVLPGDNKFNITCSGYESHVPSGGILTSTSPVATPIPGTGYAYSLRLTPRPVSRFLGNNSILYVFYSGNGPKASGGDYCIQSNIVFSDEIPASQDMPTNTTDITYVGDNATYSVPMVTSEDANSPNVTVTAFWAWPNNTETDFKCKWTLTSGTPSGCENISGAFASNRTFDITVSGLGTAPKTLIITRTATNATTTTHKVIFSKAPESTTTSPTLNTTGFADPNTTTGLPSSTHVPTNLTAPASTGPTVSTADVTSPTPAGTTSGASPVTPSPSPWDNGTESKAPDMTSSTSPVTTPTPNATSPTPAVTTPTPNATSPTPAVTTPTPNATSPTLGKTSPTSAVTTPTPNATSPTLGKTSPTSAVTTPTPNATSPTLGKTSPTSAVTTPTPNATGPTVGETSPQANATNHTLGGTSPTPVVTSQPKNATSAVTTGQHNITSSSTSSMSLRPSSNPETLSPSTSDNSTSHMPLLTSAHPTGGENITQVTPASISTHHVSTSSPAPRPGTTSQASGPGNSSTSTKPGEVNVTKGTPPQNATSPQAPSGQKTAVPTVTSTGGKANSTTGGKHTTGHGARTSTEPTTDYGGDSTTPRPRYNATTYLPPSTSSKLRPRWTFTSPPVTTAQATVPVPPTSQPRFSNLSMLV
In words: Indirect ELISA on recombinant EBV gp350 ectodomain. The class given is binding. Conditions: purified antibodies 10 μg/ml. The method, then: Briefly, immunoplates (Costar 3590; Corning Incorporated) were coated with 50 μl of 0.5 μg/ml recombinant EBV gp350 ectodomain (Immune Technology Corporation) diluted in 1× phosphate buffered saline (PBS, pH 7.4) and incubated overnight at 4° C. After washing three times with 1×PBS containing 0.05% (v/v) Tween 20 (washing buffer), plates were blocked with 100 μl washing buffer containing 2% (w/v) bovine serum albumin (BSA) (blocking buffer) then incubated for 1 h at room temperature and washed as above. 100 μl of hybridoma supernatant or 50 μl of 10 μg/ml purified mAbs was added to each well (in triplicate) and incubated for 2 h at room temperature. […] The plates were washed as described above, followed by incubation with 50 μl of goat anti-mouse IgG HRP-conjugated secondary antibody (1:2,000 diluted in 1×PBS) at room temperature for 1 h. The plates were washed again and 100 μl of chromogenic substrate 2,2′-azino-bis (3-ethylbenzothiazoline-6-sulphonic acid) (ABTS, Life Science Technologies) was added. The reaction was stopped using 100 μl of ABTS peroxidase stop solution containing 5% sodium dodecyl sulfate (SDS) in water. The absorbance was read at an optical density of 405 nm using an ELISA reader (Molecular Devices). All experiments were performed in triplicate and confirmed in three independent experiments.
ELISA binding of anti-gp350 and anti-gH/gL to soluble gp350 and gH/gL proteins was performed. Soluble EBV gp350 and gH/gL proteins were used as the target antigen at 0.5 μg/ml. 1× phosphate buffered saline (PBS) was used as negative (not shown) control. Bound antibodies were detected using HRP-conjugated anti-mouse or anti-human IgG (1:2,000).

Test [3] has as its target T2, gp350 protein on gp350 expressing CHO cells (Epstein-Barr virus, UniProt P03200).
T2 construct: stably co-transfected with full-length pCAGGS-gp350/220 and pCI-puro vector; expressed in transfected cells; host or cells: CHO cells
In words: Flow cytometry of CHO cells stably expressing EBV gp350. Format: binding. The note with it: concluded from flow cytometry and immunoblot. Here is the method:
To assess the ability of purified anti-gp350 mAb to detect surface expression of EBV gp350 protein by flow cytometry, CHO cells that stably express EBV gp350 were harvested and stained with purified anti-gp350 (10 μg/ml), followed by AF488 goat anti-mouse IgG secondary antibody. Flow cytometric analysis was performed on a C-6 FC (BD Biosciences) and data was analyzed using FlowJo Cytometry Analysis software (FlowJo, LLC) as described (47). All the experiments were independently repeated three times.
These novel antibodies were analyzed by flow cytometric analysis for surface expression of gp350 protein on 10^6 CHO cells transfected with 1 μg of pCAGGS-gp350. gp350 expressing cells were resuspended in PBS, stained with anti-gp350 mAb, which detects the gp350 ED, followed by secondary Ab goat anti-mouse conjugated to AF488. Additionally, western blot analysis was conducted on untransfected and pCAGGS-gp350 transfected CHO lysate. Anti-gp350 mAb 72A1 was used as a positive control (1:100) and anti-gp350 hybridoma clone supernatants were used at 1:50, and anti-mouse secondary antibody was used at 1:2000.
Flow cytometric analysis of gp350 and gH/gL specificity was performed. CHO wild type cells and gp350 or gH/gL-expressing CHO cells were stained with primary antibodies, followed by secondary goat anti-mouse or anti-human conjugated to AF488. Unstained cells and cells stained with secondary goat anti-mouse or anti-human conjugated to AF488 alone, were used as negative controls.

The target in test [4] is T3, EBV gp350 stably expressed on CHO cells (Epstein-Barr virus, UniProt P03200).
T3 construct: stably co-transfected with full-length pCAGGS-gp350/220 and pCI-puro vector; expressed in transfected cells; host or cells: CHO cells
T3 sequence (P03200 whole entry): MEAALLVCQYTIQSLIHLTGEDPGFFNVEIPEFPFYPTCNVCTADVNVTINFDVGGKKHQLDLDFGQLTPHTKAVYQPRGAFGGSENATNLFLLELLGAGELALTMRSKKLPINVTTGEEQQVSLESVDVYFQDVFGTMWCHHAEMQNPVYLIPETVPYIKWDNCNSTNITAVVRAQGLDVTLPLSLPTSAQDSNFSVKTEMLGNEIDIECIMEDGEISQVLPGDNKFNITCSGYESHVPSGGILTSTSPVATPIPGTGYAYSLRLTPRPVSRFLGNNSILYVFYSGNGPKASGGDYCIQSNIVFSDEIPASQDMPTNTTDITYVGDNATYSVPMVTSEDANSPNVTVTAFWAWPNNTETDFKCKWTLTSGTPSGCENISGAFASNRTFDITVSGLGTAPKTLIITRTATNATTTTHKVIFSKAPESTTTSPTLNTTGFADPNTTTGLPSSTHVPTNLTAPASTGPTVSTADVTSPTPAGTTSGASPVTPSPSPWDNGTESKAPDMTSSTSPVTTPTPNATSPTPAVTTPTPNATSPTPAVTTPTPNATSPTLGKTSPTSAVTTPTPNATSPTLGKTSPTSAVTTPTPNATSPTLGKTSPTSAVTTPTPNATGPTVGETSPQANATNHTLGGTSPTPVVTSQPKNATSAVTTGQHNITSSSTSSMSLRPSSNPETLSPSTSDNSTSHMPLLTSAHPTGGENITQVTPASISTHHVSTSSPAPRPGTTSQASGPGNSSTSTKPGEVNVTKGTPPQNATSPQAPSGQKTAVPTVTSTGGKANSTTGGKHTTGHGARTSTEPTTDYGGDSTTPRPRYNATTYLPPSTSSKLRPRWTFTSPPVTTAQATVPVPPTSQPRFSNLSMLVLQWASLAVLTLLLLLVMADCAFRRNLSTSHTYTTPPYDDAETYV
Briefly: Epitope mapping by competitive cell binding assay with biotinylated mAbs. The note with it: biotinylated m72A1 1 μg/ml. Here is the method: To evaluate conformation epitope mapping of the selected mAbs, competitive binding assays were conducted using biotinylated mAbs. A one-step antibody biotinylation kit (MACS Miltenyi Biotec) was used to biotinylate the mAbs. Approximately 1×10^5 CHO cells that stably expressed EBV gp350 were incubated for 2 hours with serially diluted ([…]) unlabeled competitor mAbs and non-specific anti-KSHV gH/gL 54A1 mAb. After being washed with PBS, the cells were incubated for 2 hours in the presence of 1 μg/ml biotinylated mAbs. To determine maximum binding, cells in which the biotinylated mAb was added in the absence of unlabeled mAbs were included in the assay. Cells were washed with PBS, followed by incubation for 1 hour with anti-biotin AF488 at a dilution of 1:500. After the final wash in PBS, cells were resuspended in 1% paraformaldehyde and analyzed by flow cytometry as described above. Percentage of inhibition was calculated as: 100−[(% fluorescent cells with competitor mAb/% fluorescent cells without competitor mAb)×100]. The complete prevention of binding of a biotinylated mAb by its unlabeled counterpart was used as a validation of the assay, as previously described (84).
At least seven unique CD21 binding epitopes on EBV gp350 have been predicted (Table 3).

T2 sequence (P03200 whole entry): as above

B1: HB3: murine anti-EBV gp350 mAb, IgG2a κ; SEQ ID NO: 106 / 107 (antibody, V domains shown)
VH: AELVRPGASVKLSCKASGYTFASYWMQWVKQWPGQGLEWIGEINPNNGHTNYNERFKNKASLTVDKSSSTAYMQLSSLTSEDSAVYYCARNLYYYGRPDYWGQGTSVTVSSAKTTAPSVYPLAPVCGDTTGSSVTLG
VL: SSLSASLGDRVTISCRASQDIGNYLNWYQQKPDGTIKLLIYYTSRLHSGVPSRFSGSGSGTDYSLTISNLEEEDIATYFCQQGNTLPPTFGGGTKLEIKRADAAPTV
modifications: heavy chain mAb HB3; light chain mAb HB3
As for B1, the “neutralization of EBV in Raji cells (in words)” value (“neutralization of EBV” for short) in test [1] is recorded as “failed to neutralize EBV infection”. In test [2], the “ELISA binding to purified EBV gp350/220” value is listed as “+”. The “type of gp350 epitope recognized (linear / conformational)” value (from here on “type … (linear / conformational)”) in test [3] was “only recognized conformational epitopes”.

B2: HB9: murine anti-EBV gp350 mAb, IgG2a κ; SEQ ID NO: 116 / 117 (antibody, V domains shown)
VH: GGLVKPGGSLKLSCAASGFTFSSYTMSWVRQTPEKRLEWVATISSGGSYIYYPDSVKGRFTISRDNAKNTLYLQMSSLKSEDTAIYYCTREDFYYGSSYGFFDVWGAGTTVTVSSAKTTAPSVYPLAPVCGDTTGSSVTLG
VL: LSLPVSLGDQASISCRSSQSIVHSNGNTYLEWYLQKAGQSPKLLIYKVSNRFSGVPDRFGGSGSGTDFTLKISRVEAEDLGVYYCFQGSHVPYTFGGGTKLEIKRADAAPTV
modifications: heavy chain mAb HB9; light chain mAb HB9
Take B2: in test [1], the “neutralization of EBV” value is listed as “failed to neutralize EBV infection”. Further, the “ELISA binding to purified EBV gp350/220” value in test [2] was “+”. In addition, the “type … (linear / conformational)” value in test [3] is “recognized both linear and conformational epitopes”.

B3: HB22: murine anti-EBV gp350 mAb, IgG1 κ; SEQ ID NO: 130 / 131; non-nAb (antibody, V domains shown)
VH: PGLVAPSQSLSITCTVSGFSLTNYGIHWVRQPPGKGLEWLVVIWSDGSTIYNSALKSRLSISKDNSKSQVFLKMNSLQTDDTAMYYCARNYYGNSYPAWFAYWGQGTLVTVSAAKTTPPSVYPLAPGSAAQTNSMVTLG
VL: LSLPVSLGDQASISCRSSQSIVHSNGNTYLEWYLQKPGQSPKLLIYKVSNRFSGVPDRFSGSGSGTDFTLRISRVEAEDLGVYYCFQGSHVPWTFGGGTKLEIKRADAAPTV
modifications: heavy chain mAb HB22; light chain mAb HB22
notes: murine anti-EBV gp350 mAb, IgG1 κ; non-nAb
B3: in test [1] (protein G and size-exclusion chromatography-purified mAbs, 12.5-100 μg/ml), the “blocking of EBV infection of Raji cells (in words)” value is recorded as “Neither HB17, HB22, nor 54A1 blocked EBV infection”. Moreover, in test [1], the “neutralization of EBV” value is reported as “dose-dependent neutralization”. The “ELISA binding to purified EBV gp350/220” value in test [2] was “+”. Also, the “% inhibition of biotinylated nAbs (biotinylated m72A1)” value in test [4] (unlabeled mAb 67.5 μg/ml) stood at 9%; in test [4] (unlabeled mAb 125 μg/ml), 16%; in test [4] (unlabeled mAb 250 μg/ml) it was 3%; in test [4] (unlabeled mAb 500 μg/ml) it was 10%.

B4: HB2: murine anti-EBV gp350 mAb, IgG2a κ; SEQ ID NO: 104 / 105 (antibody, V domains shown)
VH: PELKKPGETVKISCKASGYTFTAYSMHWVKLTPGKGLKWMGWINTKTGEPTYADDFKGRFAFSLETSASTAYLQINNLKNEDTATYFCAPYGYALDYWGQGTSVTVSSAKTTPPSVYPLAPGSAAQTNSMVTLG
VL: AILSASPGEKVTMTCRATSSVNYMHWYQQKPGSSPKPWIYATSNLASGVPARFSGSGSGTSYSLTISRVEAEDAATYYCQQWSSNPPTFGAGTKLELKRADAAPTV
modifications: heavy chain mAb HB2; light chain mAb HB2
B4: the “neutralization of EBV” value in test [1] is on record as “failed to neutralize EBV infection”. Besides, the “ELISA binding to purified EBV gp350/220” value in test [2] was “+”. Also, the “type … (linear / conformational)” value in test [3] is listed as “only recognized conformational epitopes”.
